For four molecules, K1,app (first HsdR on the DNA-bound MTase, R1 complex) results are on record in paper PMC2475608.

B1: EcoR124I HsdR subunit, wild type (enzyme)
chain: MTHQTHTIAESNNFIVLDKYIKAEPTGDSYQSESDLERELIQDLRNQGYEFISVKSQSAMLANVREQLQNLNGVVFNDSEWRRFTEQYLDNPSDGILDKTRKIHIDYICDFIFDDERLENIYLIDKKNLMRNKVQIIQQFEQAGSHANRYDVTILVNGLPLVQIELKKRGVAIREAFNQIHRYSKESFNSENSLFKYLQLFVISNGTDTRYFANTTKRDKNSFDFTMNWAKSDNTLIKDLKDFTATCFQKHTLLNVLVNYSVFDSSQTLLVMRPYQIAATERILWKIKSSFTAKNWSKPESGGYIWHTTGSGKTLTSFKAARLATELDFIDKVFFVVDRKDLDYQTMKEYQRFSPDSVNGSENTAGLKRNLDKDDNKIIVTTIQKLNNLMKAESDLPVYNQQVVFIFDECHRSQFGEAQKNLKKKFKRYYQFGFTGTPIFPENALGSETTASVFGRELHSYVITDAIRDEKVLKFKVDYNDVRPQFKSLETETDEKKLSAAENQQAFLHPMRIQEITQYILNNFRQKTHRTFPGSKGFNAMLAVSSVDAAKAYYATFKRLQEEAANKSATYKPLRIATIFSFAANEEQNAIGEISDETFDTSAMDSSAKEFLDAAIREYNSHFKTNFSTDSNGFQNYYRDLAQRVKNQDIDLLIVVGMFLTGFDAPTLNTLFVDKNLRYHGLMQAFSRTNRIYDATKTFGNIVTFRDLERSTIDAITLFGDKNTKNVVLEKSYTEYMEGFTDAATGEAKRGFMTVVSELEQRFPDPTSIESEKEKKDFVKLFGEYLRAENILQNYDEFATLKALQQIDLSDPVAVEKFKAEHYVDDEKFAELQTIRLPADRKIQDYRSAYNDIRDWQRREKEAEKKEKSTTDWDDVVFEVDLLKSQEINLDYILGLIFEHNRQNKGKGEMIEEVKRLIRSSLGNRAKEGLVVDFIQQTNLDDLPDKASIIDAFFTFAQREQQREAEALIKEENLNEDAAKRYIRTSLKREYATENGTELNETLPKLSPLNPQYKTKKQAVFQKIVSFIEKFKGVGGKI
B2: EcoR124I HsdR Y183F (enzyme)
chain: B1 chain with Y183F
B3: EcoR124I HsdR Q179K (enzyme)
chain: B1 chain with Q179K
B4: EcoR124I HsdR Y183A (enzyme)
chain: B1 chain with Y183A

Residue numbers refer to the chain shown, from its start. In names and notes the source's numbering stands.

This test has as its target EcoR124I MTase (M2S1 complex) (UniProt P10484). Kind of test: native gel or EMSA. A general note: Mobility shift assays separate free from complexed probe on a gel.
Chain of UniProt P10484 (P10484 whole entry, chain 1 of 2): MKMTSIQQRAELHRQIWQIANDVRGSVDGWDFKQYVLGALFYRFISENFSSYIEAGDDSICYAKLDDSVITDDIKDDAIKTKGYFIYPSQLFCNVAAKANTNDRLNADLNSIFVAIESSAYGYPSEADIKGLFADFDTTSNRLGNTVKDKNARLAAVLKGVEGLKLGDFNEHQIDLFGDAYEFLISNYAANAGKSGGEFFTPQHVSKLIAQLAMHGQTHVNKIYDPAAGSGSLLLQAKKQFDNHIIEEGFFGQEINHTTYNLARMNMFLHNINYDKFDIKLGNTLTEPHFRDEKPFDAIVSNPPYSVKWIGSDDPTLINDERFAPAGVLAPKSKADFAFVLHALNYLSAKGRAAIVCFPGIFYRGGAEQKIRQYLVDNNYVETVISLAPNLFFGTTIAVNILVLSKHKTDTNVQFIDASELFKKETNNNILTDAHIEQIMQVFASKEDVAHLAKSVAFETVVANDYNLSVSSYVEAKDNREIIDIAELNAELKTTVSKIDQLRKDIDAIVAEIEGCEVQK
Chain of UniProt P10484 (P10485 whole entry, chain 2 of 2, further chain): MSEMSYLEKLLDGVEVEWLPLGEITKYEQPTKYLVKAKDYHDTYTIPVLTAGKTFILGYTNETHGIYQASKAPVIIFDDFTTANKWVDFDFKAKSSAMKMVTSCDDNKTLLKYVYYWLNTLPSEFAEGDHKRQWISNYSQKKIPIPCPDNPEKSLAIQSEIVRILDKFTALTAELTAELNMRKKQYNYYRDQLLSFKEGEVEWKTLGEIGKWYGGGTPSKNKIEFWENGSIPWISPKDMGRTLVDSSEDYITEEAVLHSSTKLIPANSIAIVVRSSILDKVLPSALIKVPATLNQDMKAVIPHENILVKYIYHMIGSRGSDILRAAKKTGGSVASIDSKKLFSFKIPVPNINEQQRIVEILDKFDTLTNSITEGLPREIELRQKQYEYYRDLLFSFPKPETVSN
Consider B1, for which the K1,app (first HsdR on the DNA-bound MTase, R1 complex) is 15 nM. Take B2: the K1,app (first HsdR on the DNA-bound MTase, R1 complex) was found to be 14 nM. Take B3: the K1,app (first HsdR on the DNA-bound MTase, R1 complex) was 10 nM. Then B4, with 15 nM.
